Results from the supplement of paper PMC9732359.
± gives the uncertainty stated by the source.

Test: protein stability index of a GFP-peptide fusion (yeast GPS) (PSI 1-4); higher = more stable; sorted into four equal gates, so the index is relative within each strain
Conditions: pdr5∆
Outline: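 Yeast carrying a pooled library were grown to mid-log phase in leucine-free medium. Each library plasmid expresses Cherry and has a tiled 17-residue yeast protein peptide fused downstream of GFP. Cells were sorted into four equal gates by GFP/Cherry ratio, and plasmids from each gate were PCR-amplified, Illumina-sequenced and assigned to strains by barcode. Summing, across gates, the read frequency times the gate number gave each peptide's protein stability index.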
With SAYVKAFYQKGNKLVEL [SMC1] the protein stability index was 1.99 ± 0.051. In the case of SDAEEEEGEYKNAANTE [ISW2], the protein stability index is reported as 3.44 ± 0.14. Sequence SDDKTRQLSPHTLMSFA [PRE1] has a protein stability index of 2.12 ± 0.05. In the case of SDEERDDEDDEHNPTIV [AAR2], the protein stability index is reported as 3.32 ± 0.089. With SDERAKLELINRYAYVL [LRP1] the protein stability index was 3.17 ± 0.16. In the case of SDLVNQGIIYAKVNRPA [RPN5], the protein stability index is reported as 3.66 ± 0.26. SDNKKRSGSNAAASLPS [RPC82] showed a protein stability index of 3.19 ± 0.06. With SEAEYSKDIETLKKEWL [YIL149C/MLP2] the protein stability index was 3.04 ± 0.085. SEGISEATREVFGISKT [ITC1] gave a protein stability index of 3.42 ± 0.16. For SEHFLYLAKELNLTGPK [RPN1], the protein stability index was 2.81 ± 0.15. Sequence SEINEILARNDEEMAVL [SNF2] has a protein stability index of 2.64 ± 0.21. SELAGDEELEAEQIDVF [PRP8] showed a protein stability index of 3.19 ± 0.2. Sequence SELQPQNRSLQEHNIQD [SNF2] has a protein stability index of 3.24 ± 0.05. SENEDTKDLLSKSPSEW [CSE2] showed a protein stability index of 3.11 ± 0.067. For SENQRQIFCVFSGKGVH [GRR1], the protein stability index was 2.5 ± 0.065. In the case of SESDLDEDKNFPRSRSR [ESC2], the protein stability index is reported as 3.24 ± 0.08. SEYNFLEGSVSLPRFSK [DIS3] showed a protein stability index of 3.18 ± 0.068. In the case of SFELKEEDISDLWNNFG [RRP6], the protein stability index is reported as 3.1 ± 0.12. Sequence SFILYYRRALQSSESFD [YML103C/NUP188] has a protein stability index of 2.11 ± 0.067. SFKKIIKFLLTFIDKER [YCS4] showed a protein stability index of 1.29 ± 0.11. For SFLDRKRAKEFITTLLK [SIN4], the protein stability index was 2.21 ± 0.06. Work on SFLMRQFTRFFLLVPSK [ECM29] yielded a protein stability index of 2.03 ± 0.057. SFTQGELNDLKWGRNQP [YMR129W/POM152] showed a protein stability index of 2.84 ± 0.09. In the case of SFTSQGTISIQLKNGLL [MTR3], the protein stability index is reported as 2.67 ± 0.047. In the case of SFVGDYMHDTELNYFVG [GRR1], the protein stability index is reported as 3.04 ± 0.09. For SGDKEATAPLIQRKNKK [RPN8], the protein stability index was 3.35 ± 0.14. Work on SGDREVQRTMLELLNQL [RPT5] yielded a protein stability index of 2.73 ± 0.28. SGELLQGIVRVYSKQAT [MCD1] gave a protein stability index of 2.17 ± 0.056. Sequence SGGWGVPRKFKHFIQGG [RPL7A] has a protein stability index of 3.23 ± 0.18. SGNEMPPQDAEGWFYKR [RPS19A] gave a protein stability index of 3.29 ± 0.24. Work on SGNLPLNELSAKDKEIY [RPN13] yielded a protein stability index of 3.32 ± 0.083. In the case of SGQLNFEIDGDVIHFED [PCI8], the protein stability index is reported as 2.83 ± 0.067. SGTPTLKKNIEPKKDKE [YOR098C/NUP1] gave a protein stability index of 3.29 ± 0.11. SGVKNDILQSLSGGGHD [CDC53] gave a protein stability index of 3.09 ± 0.077. SGWGAVVYIIKKDEVVK [PUP3] showed a protein stability index of 2.96 ± 0.072. In the case of SHFDYNTLEFIIEQLSI [YCG1], the protein stability index is reported as 2.62 ± 0.12. SHIESDSTSHNNGSSDK [MED1] gave a protein stability index of 2.94 ± 0.038. Sequence SHLVVPYCPIASITGTG [YMR129W/POM152] has a protein stability index of 1.37 ± 0.066. Sequence SHLYKARLDGHDFLFNT [RPN14] has a protein stability index of 2.88 ± 0.076. SHTSLVKIGKFIPHGLK [SRB8] showed a protein stability index of 1.73 ± 0.045. Sequence SIAEEIPIAIVLKACGI [RET1] has a protein stability index of 1.49 ± 0.049. For SIDDHPYNLNLFPNELY [RPC31], the protein stability index was 2.53 ± 0.061. Work on SIDFRTYRCSIKNLPAD [SRB2] yielded a protein stability index of 2.56 ± 0.079. In the case of SIGRTAQGKEFGVTKAR [RPL17A], the protein stability index is reported as 3.44 ± 0.12. In the case of SIMPDLYFYRDPEEVEQ [RPS0A], the protein stability index is reported as 2.95 ± 0.077. With SINKNNKEMHTDLGKDI [SSN2] the protein stability index was 2.07 ± 0.22. In the case of SINVHSNNITSGLNRAI [RET1], the protein stability index is reported as 3.24 ± 0.07. Work on SIRAEAVAASSTKTGTP [POP1] yielded a protein stability index of 3.21 ± 0.1. For SKATGAPSANQGDEALS [RTT102], the protein stability index was 3.32 ± 0.1. SKDLRSVWKPIAAIIGR [IRR1] showed a protein stability index of 2.15 ± 0.032. Sequence SKEWFQLDDEDFDLLNK [FAS1] has a protein stability index of 3.31 ± 0.1. With SKLSLSRTDAVRCKDCG [RPC10] the protein stability index was 1.9 ± 0.064. In the case of SKMGAPWCVKPEYLAMY [ITC1], the protein stability index is reported as 3.23 ± 0.048. In the case of SKPSTASPSAHTSSSDG [RPN4], the protein stability index is reported as 3.04 ± 0.064. SKQLSLEEKKKRPNNKT [IRR1] showed a protein stability index of 2.59 ± 0.094. Sequence SKSAPSKKISNTAAALV [YAR002W/NUP60] has a protein stability index of 2.97 ± 0.068. In the case of SKSENPVLSTIAFLVGL [SWI3], the protein stability index is reported as 2.54 ± 0.085. SKTHKTVSRAYGGSRCA [RPL34A] showed a protein stability index of 2.91 ± 0.054. Sequence SKVVDDMPSLRLIDLSG [GRR1] has a protein stability index of 2.91 ± 0.081. SKYYPGVIIKVEESGEH [SNU114] gave a protein stability index of 2.08 ± 0.077. Sequence SLCTVWKPNPSYDVENV [SRB5] has a protein stability index of 2.03 ± 0.098. SLDTSASTINGASIIQV [YML103C/NUP188] gave a protein stability index of 1.44 ± 0.086. SLEGCVEMAWIMGFISY [FAS2] showed a protein stability index of 1.86 ± 0.061. For SLEMVPKDTSAATMTSA [RGR1], the protein stability index was 2.77 ± 0.12. SLFQLSKLGKNLQTVHF [GRR1] gave a protein stability index of 2.22 ± 0.051. SLKKVDEIKAQRKEIKD [SMC4] showed a protein stability index of 2.94 ± 0.18. Work on SLLAMHKHNIMKNENAN [CDC53] yielded a protein stability index of 2.58 ± 0.066. SLLERHIPRLIPKQLLD [YJL039C/NUP192] gave a protein stability index of 1.38 ± 0.071. For SLLSLVGHLSILPQQSK [ECM29], the protein stability index was 2 ± 0.052. SLQDLIYKRGQAGVTKA [SMC2] showed a protein stability index of 1.94 ± 0.094. Sequence SLQDSIIKQENFNSVND [SSN2] has a protein stability index of 1.83 ± 0.073. Sequence SLQSSSQTQLENANAAN [MED2] has a protein stability index of 2.6 ± 0.056. SLSVVAGKWSSKYLIKQ [ECM29] gave a protein stability index of 2.19 ± 0.18. For SLTDVAFFTYDAGVTFN [ECM29], the protein stability index was 2.34 ± 0.057. SLTRDFEQCCKEKKELQ [YIL149C/MLP2] showed a protein stability index of 3.01 ± 0.089. SLVALGIDPQDLKKLNL [CDC53] gave a protein stability index of 2.72 ± 0.066. In the case of SLYIYYLIKLLGFEVKD [SIR2], the protein stability index is reported as 2.13 ± 0.13. With SMILEAISTDKINPFGF [RRI2] the protein stability index was 3.01 ± 0.12. With SMILGVAASIIPFPDHN [RPB2] the protein stability index was 2.41 ± 0.12. With SMINSVSPTNVMGTPLT [PGD1] the protein stability index was 2.94 ± 0.059. Work on SMKMELLKKELLTIEPK [SMC2] yielded a protein stability index of 2.69 ± 0.064. With SMNKELIAIVSKLLQTT [NUT1] the protein stability index was 1.79 ± 0.096. SMTAVPKPLKFLRPTYP [RPN1] gave a protein stability index of 2.21 ± 0.064. Sequence SNASQMGNTGSGGYDNA [RPB3] has a protein stability index of 3.32 ± 0.17. For SNDLDKFFQKKIHLYEK [YGL172W/NUP49], the protein stability index was 2.22 ± 0.067. Sequence SNELIEHFSHFGHIMED [YDL088C/ASM4] has a protein stability index of 3.09 ± 0.065. For SNESQNGKDSEIMYTGV [SMC3], the protein stability index was 3.13 ± 0.27. SNGLLSIVLLLLSQFGI [YML103C/NUP188] gave a protein stability index of 1.53 ± 0.083. In the case of SNIMSDSKKIKVDSPDD [GAL11], the protein stability index is reported as 2.73 ± 0.079. In the case of SNISDEKSRISERDSKD [YMR129W/POM152], the protein stability index is reported as 3.12 ± 0.076. SNKSNSTNESNKSISDE [SSN2] showed a protein stability index of 3.05 ± 0.1. For SNNELVRTNTLTKAAIV [RPS8A], the protein stability index was 3.046 ± 0.022. In the case of SNQERCHDEGNDMLQRN [RRI1], the protein stability index is reported as 3.2 ± 0.11. In the case of SNSMDRSSSASNEFVPN [SWI1], the protein stability index is reported as 2.71 ± 0.055. Sequence SNSNNNGNKDSSFNFNK [SWI1] has a protein stability index of 3.17 ± 0.043. Work on SNTMYSVRLFSFLDPLN [YJL039C/NUP192] yielded a protein stability index of 1.48 ± 0.061. SPAGKYKRQKSSLLYTY [ESC2] showed a protein stability index of 1.39 ± 0.067.

Same assay, conditions: san1∆
In the case of SATVKTSDLLGSHLSET [ECM29], the protein stability index is reported as 2.94 ± 0.095. Sequence SAWIWPMDEETKLYFDV [RPC25] has a protein stability index of 2.49 ± 0.092.
